The target in experiment [1] is full-length human Tim3 on cells (CHO-K1 stably transfected with plasmid 15312_hTIM3-fl_pUC_Neo) (human) (UniProt Q8TDQ0). In words: cellular ELISA on CHO-TIM3.
Experiment [2] deals with Tim3-ECD-His-Biotin (human) (UniProt Q8TDQ0). In words: ELISA on human Tim3 (values in relation to the samples max value).
In experiment [3] the target is monomeric human Tim3-ECD (human) (UniProt Q8TDQ0). In words: SPR BIAcore B4000, Ab captured on anti-mouse IgG, 25 C. In general terms: SPR reads the build-up and loss of mass on a sensor chip optically.
Experiment [4] concerns the target monomeric cyno Tim3-ECD (cynomolgus). The experiment is described as above.
Experiment [5] deals with huFc fused dimeric human Tim3-ECD (human) (UniProt Q8TDQ0). In words: SPR BIAcore B4000, Ab captured on anti-mouse IgG, 25 C, dimeric antigen (avidity).
In experiment [6] the target is monomeric cyno Tim3-ECD (cynomolgus). In words: ELISA on cynomolgus Tim3. (In general: In an ELISA, binding on a coated surface is turned into a signal by an enzyme label.)
The target of experiment [7] is full-length human Tim3 on cells (CHO-K1 stably transfected with plasmid 15312_hTIM3-fl_pUC_Neo) (human) (UniProt Q8TDQ0). In words: cellular ELISA on CHO-TIM3 (values in relation to the samples max value).
Experiment [8] deals with Tim3-ECD-His-Biotin (human) (UniProt Q8TDQ0). Description: ELISA on human Tim3.
The target in experiment [9] is full-length human Tim3 on cells (CHO-K1 stably transfected with plasmid 15312_hTIM3-fl_pUC_Neo) (human) (UniProt Q8TDQ0). In words: cell-based or functional assay.
Experiment [10] concerns the target monomeric cyno Tim3-ECD (cynomolgus). Description: ELISA on cynomolgus Tim3 (values in relation to the samples max value).

Broadly, the EC50 is the concentration needed to bring the measured effect to its halfway point. A low value points to an effect from little substance.

For the substance Reference antibody Biolegend F38-2E2, the Inflexion point was determined as 224 ng/mL in experiment [1], 210000 ng/mL in [6] and 88.3 ng/mL in experiment [8]. In addition, the results for the EC50 in experiment [2], in experiment [7] and in experiment [10] were 0.0732 µg/mL, 0.15 µg/mL and 0.423 µg/mL, respectively. The Kd in experiment [3] came to 13.6 nM; in experiment [4] it was 168 nM; in [5], 7.5 nM. The IFN-gamma release in MLR at 1 µg/ml antibody, % of rec hu IL-2 (20 EU/ml) = 100% in experiment [9] amounted to 7%. The substance further registered an IFN-gamma release in MLR at 10 µg/ml antibody, % of rec hu IL-2 (20 EU/ml) = 100% in [9] of 26%. For the same substance, in experiment [9], the IFN-gamma release in MLR at 40 µg/ml antibody, % of rec hu IL-2 (20 EU/ml) = 100% was 36%.

(Values after patent US20190322748A1.)
